Reference: patent US20220057381A1

What was measured:
Test in all cases: cell-based or functional assay
[1] = molecular target: BCMA on multiple myeloma target cells (KILR MM-1R; RPMI8226_Luc) (UniProt Q02223)
[2] = molecular target: LCAR-B38M CAR (on LCAR-B38M CAR-T drug product cells)
[3] = molecular target: KLK2 CAR (on KLK2 CAR-T cells)

**Q.** Which % Total Killing, sample PQ-0330 Donor B MOI = 1.5 on RPMI8226 luc target cells [1] does the source give for “LCAR-B38M CAR (on LCAR-B38M CAR-T drug product cells) (receptor)” here?
**A.** 77%

**Q.** What about the % Total Killing, sample SH19-28 on RPMI8226 Luc target cells [1] of the same substance?
**A.** 67%

**Q.** How did the % CAR-T Killing of KILR MM-1R cells, baseline = CAR-T cells blocked with 50 ug/mL sBCMA lot C108P1-86BF2-NX [2] turn out when “Soluble Human BCMA Protein (sBCMA) (from UniProt Q02223 1-54) (receptor)” was run?
**A.** 42%

**Q.** What about the % CAR-T Killing of KILR MM-1R cells, baseline = CAR-T cells blocked with 100 ug/mL sBCMA lot C108P1-86BF2-NX [2] of the same substance?
**A.** 59%

**Q.** And the % CAR-T Killing of KILR MM-1R cells, baseline = CAR-T cells blocked with 150 ug/mL sBCMA lot C108P1-86BF2-NX [2]?
**A.** 68%

**Q.** And the % CAR-T Killing of KILR MM-1R cells, baseline = CAR-T cells blocked with 200 ug/mL sBCMA lot C108P1-86BF2-NX [2]?
**A.** 74%

**Q.** And the % CAR-T Killing of KILR MM-1R cells, baseline = CAR-T cells blocked with 250 ug/mL sBCMA lot C108P1-86BF2-NX [2]?
**A.** 79%

**Q.** And the % CAR-T Killing of KILR MM-1R cells, baseline = CAR-T cells blocked with 300 ug/mL sBCMA lot C108P1-86BF2-NX [2]?
**A.** 79%

**Q.** What about the % CAR-T Killing of KILR MM-1R cells, baseline = CAR-T cells blocked with 400 ug/mL sBCMA lot C108P1-86BF2-NX [2] of the same substance?
**A.** 62%

**Q.** What about the % CAR-T Killing, Blocking method, sample PQ-0330 Donor B MOI = 1.5 on K562 Luc (non-B cell) target cells [2] of the same substance?
**A.** -46%

**Q.** And the % CAR-T Killing, Blocking method, sample PQ-0330 Donor B MOI = 1.5 on RPMI8226 luc target cells [2]?
**A.** 28%

**Q.** And the % CAR-T Killing, Blocking method, sample SH19-28 on K562 Luc (non-B cell) target cells [2]?
**A.** -41%

**Q.** What about the % CAR-T Killing, Blocking method, sample SH19-28 on RPMI8226 Luc target cells [2] of the same substance?
**A.** 29%

**Q.** What about the % Control T Cell Killing (blocked baseline), Blocking method, sample PQ-0330 Donor B MOI = 1.5 on RPMI8226 luc target cells [2] of the same substance?
**A.** 67%

**Q.** What about the % Control T Cell Killing (blocked baseline), Blocking method, sample SH19-28 on K562 Luc (non-B cell) target cells [2] of the same substance?
**A.** 39%

**Q.** And the % Control T Cell Killing (blocked baseline), Blocking method, sample SH19-28 on RPMI8226 Luc target cells [2]?
**A.** 53%

**Q.** With “soluble human KLK2 protein (sKLK2) with C-terminal His6 tag (from UniProt P20151 25-261)” as the substance, how does the % CAR-T Killing of KILR LNcaP-KLK2 cells, baseline = SH20-KLK2-004-CAR-T blocked w/ 125 ug/mL KLK2 soluble protein (500 mg/mL) [3] read?
**A.** 107%

**Q.** What does the source list for “soluble human KLK2 protein (sKLK2) with C-terminal His6 tag (from UniProt P20151 25-261) (enzyme)”?
**A.** % CAR-T Killing of KILR LNcaP-KLK2 cells, baseline = SH20-KLK2-004-CAR-T blocked w/ 2.5 ug/mL KLK2 soluble protein (500 mg/mL) [3]: 49%; % CAR-T Killing of KILR LNcaP-KLK2 cells, baseline = SH20-KLK2-004-CAR-T blocked w/ 12.5 ug/mL KLK2 soluble protein (500 mg/mL) [3]: 68%; % CAR-T Killing of KILR LNcaP-KLK2 cells, baseline = SH20-KLK2-004-CAR-T blocked w/ 25 ug/mL KLK2 soluble protein (500 mg/mL) [3]: 79%; % CAR-T Killing of KILR LNcaP-KLK2 cells, baseline = SH20-KLK2-004-CAR-T blocked w/ 50 ug/mL KLK2 soluble protein (500 mg/mL) [3]: 96%; % CAR-T Killing of KILR LNcaP-KLK2 cells, baseline = SH20-KLK2-004-CAR-T blocked w/ 75 ug/mL KLK2 soluble protein (500 mg/mL) [3]: 106%; % CAR-T Killing of KILR LNcaP-KLK2 cells, baseline = SH20-KLK2-004-CAR-T blocked w/ 100 ug/mL KLK2 soluble protein (500 mg/mL) [3]: 111%
